# Reference: US20230218721A1 (ZHEJIANG DOER BIOLOGICS, published 2023)
# Starred links: 1 amine or outer side, 2 acyl side, 3 side chain; linkers in the order of their positions; H or OH if unused. Groups on a side chain read outwards from the residue. No end group written: not given here. *: point of attachment. C20 diacid = O=C(O)CCCCCCCCCCCCCCCCCCC(=O)*; C18 diacid = O=C(O)CCCCCCCCCCCCCCCCC(=O)*; γGlu = O=C(O)[C@H](CCC(=O)[*:2])N[*:1]; Palmitoyl = CCCCCCCCCCCCCCCC(=O)*; AEEA = NCCOCCOCC(=O)O
# T1: glucose-dependent insulinotropic polypeptide receptor (GIPR) (human (printed as 'Humanized'), UniProt P48546 22-466)
# T1 sequence (looked up): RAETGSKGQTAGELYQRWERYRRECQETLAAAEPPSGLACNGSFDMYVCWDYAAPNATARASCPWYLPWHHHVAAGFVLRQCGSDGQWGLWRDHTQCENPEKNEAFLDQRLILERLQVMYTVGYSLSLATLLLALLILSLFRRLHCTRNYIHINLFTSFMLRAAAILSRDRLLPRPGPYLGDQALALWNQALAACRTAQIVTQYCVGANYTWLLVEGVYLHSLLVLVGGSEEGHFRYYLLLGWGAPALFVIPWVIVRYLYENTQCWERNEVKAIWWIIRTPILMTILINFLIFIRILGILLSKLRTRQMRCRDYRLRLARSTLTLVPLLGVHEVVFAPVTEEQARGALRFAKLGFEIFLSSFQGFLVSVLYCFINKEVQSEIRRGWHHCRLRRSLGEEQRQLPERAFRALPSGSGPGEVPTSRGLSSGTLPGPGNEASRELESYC
# Columns and labels:
# Test in all cases: cell-based or functional assay
# [1] = target: human glucagon-like peptide-1 receptor (GLP-1R) (human (printed as 'Humanized'), UniProt P43220 24-463)
# [2] = target: glucagon receptor (GCGR) (human (printed as 'Humanized'), UniProt P47871 26-477)
# [3] = target: T1, glucose-dependent insulinotropic …
# glucagon receptor (GCGR), sequence (P47871 26-477): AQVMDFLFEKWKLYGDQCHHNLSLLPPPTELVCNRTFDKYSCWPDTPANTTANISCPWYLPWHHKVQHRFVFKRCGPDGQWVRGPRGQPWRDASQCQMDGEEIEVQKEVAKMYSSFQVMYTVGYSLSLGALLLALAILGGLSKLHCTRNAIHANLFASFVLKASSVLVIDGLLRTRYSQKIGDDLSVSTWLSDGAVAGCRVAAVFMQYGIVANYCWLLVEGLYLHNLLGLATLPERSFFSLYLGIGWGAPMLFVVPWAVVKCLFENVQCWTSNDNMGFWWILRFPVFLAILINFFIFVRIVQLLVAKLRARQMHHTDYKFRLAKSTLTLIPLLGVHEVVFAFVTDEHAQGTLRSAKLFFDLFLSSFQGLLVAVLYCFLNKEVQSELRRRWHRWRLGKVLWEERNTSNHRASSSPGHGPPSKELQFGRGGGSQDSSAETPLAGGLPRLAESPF
Binder,"GLP-1R agonist activity (EC50, nM) [1] [nM]","GCGR agonist activity (EC50, nM) [2] [nM]","GIPR agonist activity (EC50, nM) [3] [nM]"
YSEGTFTSDK([γGlu-Palmitoyl])SKYLDSQAAQDFVQWLLAGGPSSGAPPPS-NH2 (N-terminus assumed; SMILES CCCCCCCCCCCCCCCC(=O)N[C@@H](CCC(=O)NCCCC[C@H](NC(=O)[C@H](CC(=O)O)NC(=O)[C@H](CO)NC(=O)[C@@H](NC(=O)[C@H](Cc1ccccc1)NC(=O)[C@@H](NC(=O)CNC(=O)[C@H](CCC(=O)O)NC(=O)[C@H](CO)NC(=O)[C@@H](N)Cc1ccc(O)cc1)[C@@H](C)O)[C@@H](C)O)C(=O)N[C@@H](CO)C(=O)N[C@@H](CCCCN)C(=O)N[C@@H](Cc1ccc(O)cc1)C(=O)N[C@@H](CC(C)C)C(=O)N[C@@H](CC(=O)O)C(=O)N[C@@H](CO)C(=O)N[C@@H](CCC(N)=O)C(=O)N[C@@H](C)C(=O)N[C@@H](C)C(=O)N[C@@H](CCC(N)=O)C(=O)N[C@@H](CC(=O)O)C(=O)N[C@@H](Cc1ccccc1)C(=O)N[C@H](C(=O)N[C@@H](CCC(N)=O)C(=O)N[C@@H](Cc1c[nH]c2ccccc12)C(=O)N[C@@H](CC(C)C)C(=O)N[C@@H](CC(C)C)C(=O)N[C@@H](C)C(=O)NCC(=O)NCC(=O)N1CCC[C@H]1C(=O)N[C@@H](CO)C(=O)N[C@@H](CO)C(=O)NCC(=O)N[C@@H](C)C(=O)N1CCC[C@H]1C(=O)N1CCC[C@H]1C(=O)N1CCC[C@H]1C(=O)N[C@@H](CO)C(N)=O)C(C)C)C(=O)O) [incretin analogue P3YELAN],0.11,4.57,0.004
YSEGTFTSDK([AEEA-AEEA-γGlu-C20 diacid])SKYLDSQAAQDFVQWLLAGGPSSGAPPPS-NH2 (N-terminus assumed; SMILES CC(C)C[C@H](NC(=O)[C@H](CC(C)C)NC(=O)[C@H](Cc1c[nH]c2ccccc12)NC(=O)[C@H](CCC(N)=O)NC(=O)[C@@H](NC(=O)[C@H](Cc1ccccc1)NC(=O)[C@H](CC(=O)O)NC(=O)[C@H](CCC(N)=O)NC(=O)[C@H](C)NC(=O)[C@H](C)NC(=O)[C@H](CCC(N)=O)NC(=O)[C@H](CO)NC(=O)[C@H](CC(=O)O)NC(=O)[C@H](CC(C)C)NC(=O)[C@H](Cc1ccc(O)cc1)NC(=O)[C@H](CCCCN)NC(=O)[C@H](CO)NC(=O)[C@H](CCCCNC(=O)COCCOCCNC(=O)COCCOCCNC(=O)CC[C@H](NC(=O)CCCCCCCCCCCCCCCCCCC(=O)O)C(=O)O)NC(=O)[C@H](CC(=O)O)NC(=O)[C@H](CO)NC(=O)[C@@H](NC(=O)[C@H](Cc1ccccc1)NC(=O)[C@@H](NC(=O)CNC(=O)[C@H](CCC(=O)O)NC(=O)[C@H](CO)NC(=O)[C@@H](N)Cc1ccc(O)cc1)[C@@H](C)O)[C@@H](C)O)C(C)C)C(=O)N[C@@H](C)C(=O)NCC(=O)NCC(=O)N1CCC[C@H]1C(=O)N[C@@H](CO)C(=O)N[C@@H](CO)C(=O)NCC(=O)N[C@@H](C)C(=O)N1CCC[C@H]1C(=O)N1CCC[C@H]1C(=O)N1CCC[C@H]1C(=O)N[C@@H](CO)C(N)=O) [glucagon derivative P9YELAN],4.25,4.77,0.19
YSEGTFTSDK([AEEA-AEEA-γGlu-C18 diacid])SKYLDSQAAQDFVQWLLAGGPSSGAPPPS-NH2 (N-terminus assumed; SMILES CC(C)C[C@H](NC(=O)[C@H](CC(C)C)NC(=O)[C@H](Cc1c[nH]c2ccccc12)NC(=O)[C@H](CCC(N)=O)NC(=O)[C@@H](NC(=O)[C@H](Cc1ccccc1)NC(=O)[C@H](CC(=O)O)NC(=O)[C@H](CCC(N)=O)NC(=O)[C@H](C)NC(=O)[C@H](C)NC(=O)[C@H](CCC(N)=O)NC(=O)[C@H](CO)NC(=O)[C@H](CC(=O)O)NC(=O)[C@H](CC(C)C)NC(=O)[C@H](Cc1ccc(O)cc1)NC(=O)[C@H](CCCCN)NC(=O)[C@H](CO)NC(=O)[C@H](CCCCNC(=O)COCCOCCNC(=O)COCCOCCNC(=O)CC[C@H](NC(=O)CCCCCCCCCCCCCCCCC(=O)O)C(=O)O)NC(=O)[C@H](CC(=O)O)NC(=O)[C@H](CO)NC(=O)[C@@H](NC(=O)[C@H](Cc1ccccc1)NC(=O)[C@@H](NC(=O)CNC(=O)[C@H](CCC(=O)O)NC(=O)[C@H](CO)NC(=O)[C@@H](N)Cc1ccc(O)cc1)[C@@H](C)O)[C@@H](C)O)C(C)C)C(=O)N[C@@H](C)C(=O)NCC(=O)NCC(=O)N1CCC[C@H]1C(=O)N[C@@H](CO)C(=O)N[C@@H](CO)C(=O)NCC(=O)N[C@@H](C)C(=O)N1CCC[C@H]1C(=O)N1CCC[C@H]1C(=O)N1CCC[C@H]1C(=O)N[C@@H](CO)C(N)=O) [glucagon derivative P5YELAN],0.81,5.87,1.56
